Laboratory results: PMC3082007, “The microRNA cluster miR-106b~25 regulates adult neural stem/progenitor cell proliferation and neuronal differentiation”

Biological target: FoxO3-GST (human, UniProt O43524 1-673)
Assay: EMSA; 5 nM probe; 50 ng/ul protein; Binding Buffer as printed: 200 mM Tris-HCl pH 7.5, 200 mM KCl, 200 mM MgCl2, 2% NP-40, 10% glycerol, 5 mM DTT, 500 ng/ul salmon sperm DNA (possibly a stock concentration); room temperature 20 min; 4% native PAGE at 4 C
Conditions: protein: recombinant; tags: GST; label: 32P; blunt

FoxO3-GST, sequence (O43524 whole entry): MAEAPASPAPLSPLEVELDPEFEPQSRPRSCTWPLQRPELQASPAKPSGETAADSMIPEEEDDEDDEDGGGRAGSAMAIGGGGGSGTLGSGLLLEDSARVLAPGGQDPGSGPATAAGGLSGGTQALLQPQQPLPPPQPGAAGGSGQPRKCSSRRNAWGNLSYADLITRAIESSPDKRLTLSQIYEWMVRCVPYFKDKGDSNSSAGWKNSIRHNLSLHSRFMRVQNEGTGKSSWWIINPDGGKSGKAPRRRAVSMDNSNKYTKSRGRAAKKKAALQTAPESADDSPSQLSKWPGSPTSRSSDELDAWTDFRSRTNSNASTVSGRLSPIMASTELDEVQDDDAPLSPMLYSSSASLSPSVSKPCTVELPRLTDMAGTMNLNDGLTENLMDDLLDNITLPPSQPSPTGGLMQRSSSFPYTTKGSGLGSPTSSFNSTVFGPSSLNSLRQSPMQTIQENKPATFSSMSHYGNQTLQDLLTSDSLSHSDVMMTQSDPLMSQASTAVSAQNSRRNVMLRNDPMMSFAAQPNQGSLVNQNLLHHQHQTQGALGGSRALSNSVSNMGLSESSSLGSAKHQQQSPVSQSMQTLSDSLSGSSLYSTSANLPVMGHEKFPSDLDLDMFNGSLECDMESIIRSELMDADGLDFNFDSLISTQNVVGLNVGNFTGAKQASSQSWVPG

B1: FHRE WT (miR-106b~25/Mcm7 intron 1) (dsDNA)
DNA 1: GGCCCATGTGCTTCTTTGTTTACTAAGAGCGGAAGCAG
DNA 2: CTGCTTCCGCTCTTAGTAAACAAAGAAGCACATGGGCC
binding result: binds
